Where no end group is shown, it is not given here.
These sequences were tested against T1, TLR10 (Homo sapiens, UniProt Q9BXR5) (assay: mRNA display affinity selection against TLR10, NGS abundance). Conditions: TLR10 selection pulldown (+); Top100 selection hits, NGS.
T1 sequence (Q9BXR5 20-576): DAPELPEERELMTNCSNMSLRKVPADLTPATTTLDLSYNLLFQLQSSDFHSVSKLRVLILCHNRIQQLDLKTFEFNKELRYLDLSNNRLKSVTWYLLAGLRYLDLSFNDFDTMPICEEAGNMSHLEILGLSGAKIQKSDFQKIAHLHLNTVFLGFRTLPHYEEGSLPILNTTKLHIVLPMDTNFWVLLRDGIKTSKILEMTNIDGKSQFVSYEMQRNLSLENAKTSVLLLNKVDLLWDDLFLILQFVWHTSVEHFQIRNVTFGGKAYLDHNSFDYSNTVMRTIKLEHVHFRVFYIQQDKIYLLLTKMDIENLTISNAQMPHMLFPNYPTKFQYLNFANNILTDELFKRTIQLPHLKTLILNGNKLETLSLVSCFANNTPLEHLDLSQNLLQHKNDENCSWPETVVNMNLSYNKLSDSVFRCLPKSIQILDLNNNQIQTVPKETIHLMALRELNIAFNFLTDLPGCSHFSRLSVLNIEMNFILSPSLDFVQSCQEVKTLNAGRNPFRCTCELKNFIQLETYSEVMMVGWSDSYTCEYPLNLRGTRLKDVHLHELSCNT
Type: binding
Parameters: Chimera protein (extracellular domain, amino acid 20-576;); Fc (chimera); purchased R&D system #6619-TR-050

Sequence | Library fraction | Raw reads
AFQRRDDFRWVI | 0.00019 | 19
AINFELTNKIAF | 0.008 | 804
AIRFSNVLAL | 0.00022 | 21
AIYYSRLNKVAF | 0.00018 | 18
AKLIYRTQGIMG | 0.00211 | 206
ALELKHVVVV | 0.00049 | 48
ALLIKQTNMLYC | 0.023 | 2215
ALRFPHLGMMAF | 0.00026 | 25
AQMYPIQNKIAF | 0.00064 | 62
ASINRYGGNAAS | 0.077 | 7526
AVEFRLQRAIAY | 0.00163 | 159
AVIVWAKQGIKG | 0.0006 | 58
AVRNKYGGNAAS | 0.054 | 5293
CLGISNRIVVV | 0.00017 | 17
CLPFPLQMRIAY | 0.00022 | 21
CMIFHTQLKIAF | 0.00053 | 52
CNPYRGNIGW | 0.006 | 614
CVLVNNRYLVH | 0.00056 | 55
FRGVLIRSS | 0.00018 | 18
FVLNGRYLVM | 0.0007 | 68
GCLHGNVPVYY | 0.00224 | 218
GDLRGNVCMWL | 0.00021 | 20

Sequence | Library fraction | Raw reads
GLVINKRWYVHL | 0.00058 | 57
GTGLNRYGGINY | 0.023 | 2231
GVRLNGVIFVSV | 0.00024 | 23
GYAVGKLLIRV | 0.00026 | 25
ICFVYVRSS | 0.00028 | 27
IGKTYVKSC | 0.00027 | 26
IGLVRIKSS | 0.0012 | 117
IGNTYVASS | 0.00022 | 21
IGNVCVVSS | 0.007 | 660
IGRLYIKSS | 0.003 | 304
IGRVMIKSS | 0.008 | 778
IGSVFIKSS | 0.00365 | 356
LGNVYIRSS | 0.00075 | 73
MIRMDRLRVL | 0.00023 | 22
MMSRGMRWVL | 0.00019 | 19
MNPYSGNIVV | 0.00022 | 21
RIETARLVIL | 0.00074 | 72
RILFPLQNSIAF | 0.00041 | 40
RMSLNTRYIAF | 0.00031 | 30
RNPYSGNIAI | 0.00557 | 543
SFMFFSQRKLAF | 0.00034 | 33
SIEGMHVVIV | 0.00022 | 21

Same assay, conditions: TLR10 selection pulldown (-); Top100 selection hits, NGS

Sequence | Library fraction | Raw reads
AEIHAWGLRI | 0.00117 | 139
AINFELTNKIAF | 0.013 | 1556
AIYNRYGGNIAS | 0.00153 | 182
ALKFELLRKVAF | 0.00278 | 332
ALLIKQTNMLYC | 0.018 | 2188
ALVTQHVNVY | 0.00162 | 193
AMKLSARYIAF | 0.00072 | 86
ANYHGNVPWSC | 0.00047 | 56
AQMYPIQNKIAF | 0.00063 | 75
ASFVIGQLLVN | 0.00055 | 66
ASINRYGGNAAS | 0.042 | 4957
ATIDLQLRRLTL | 0.00067 | 80
AVEFRLQRAIAY | 0.00093 | 111
AVEFSNAVVM | 0.00055 | 66
AVRNKYGGNAAS | 0.012 | 1475
CESCCYVIDFEF | 0.00343 | 409
CIIFVRQNKCAF | 0.00053 | 63
CITFQLTRKVAF (not fully specified) | 0.00554 | 661
CMIFHTQLKIAF | 0.004 | 470
CMSFYLQRKIAI | 0.00142 | 169
CNPYRGNIGW | 0.016 | 1871
CVFFPHLNKIAL | 0.022 | 2623
CVHFCWQRKLAY | 0.00152 | 181
GCLHGNVPVYY | 0.00272 | 324
GLLHGNVPTWI | 0.002 | 232
GLVINKRWYVHL | 0.00054 | 64

Sequence | Library fraction | Raw reads
GTGLNRYGGINY | 0.00739 | 882
GVGNRYGGHAGT | 0.0009 | 107
IGKTYVASS | 0.00089 | 106
IGKVYVHSS | 0.00092 | 110
IGLVRIKSS | 0.00155 | 185
IGLVRVVSS | 0.00658 | 785
IGNVCIRSS | 0.0008 | 96
IGNVCVVSS | 0.004 | 475
IGRLFVKSS | 0.00284 | 339
IGRLYIKSS | 0.00136 | 162
IGRVCIRSS | 0.00147 | 175
IGRVMIKSS | 0.007 | 870
IGRVWVQSS | 0.002 | 250
IGSVFIKSS | 0.003 | 375
RIETARLVIL | 0.00141 | 168
RIETRCYVLH | 0.0006 | 72
RILFARQNLAAF | 0.00283 | 338
RMMFHLLNQIAY | 0.00358 | 427
RNPYSGNIAI | 0.00067 | 80
RSPIPSWG | 0.00043 | 51
SFTFALQRRIAY | 0.0006 | 71
SHYFAFQKKLAF | 0.00125 | 149
SICFASQRLLAF | 0.00149 | 178
SICFPLQHKCAY | 0.00144 | 172
SIEFRRMRAIAY | 0.00067 | 80
